Numbering of substitutions follows the chain as printed. One block for each binder: values may come before it.
Biological target: T1, hCD96-humanIgG1 fusion protein (human) (UniProt P40200)
T1 sequence: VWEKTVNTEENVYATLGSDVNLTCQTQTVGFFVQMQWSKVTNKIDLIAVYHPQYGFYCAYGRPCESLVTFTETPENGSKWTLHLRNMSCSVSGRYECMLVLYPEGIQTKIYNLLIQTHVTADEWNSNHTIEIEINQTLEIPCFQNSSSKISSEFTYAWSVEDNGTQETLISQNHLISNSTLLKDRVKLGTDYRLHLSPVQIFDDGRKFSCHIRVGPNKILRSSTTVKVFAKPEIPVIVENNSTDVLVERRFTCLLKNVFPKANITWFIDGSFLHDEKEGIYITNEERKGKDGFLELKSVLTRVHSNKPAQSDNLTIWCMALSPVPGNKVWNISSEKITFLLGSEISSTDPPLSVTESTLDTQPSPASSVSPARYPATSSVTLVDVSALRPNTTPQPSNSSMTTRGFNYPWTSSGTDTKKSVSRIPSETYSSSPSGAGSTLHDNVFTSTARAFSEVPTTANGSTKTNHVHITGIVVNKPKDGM
Assay: SPR (Biacore), hCD96-hFc captured by anti-huFc

B1: BL006-9-15G1-15K5 (antibody, V domains shown)
VH: QAYLQQSGAELVRPGASVKMSCKASGYTFTSYNMHWVKQTPRQGLEWIGAVIPGNGDSFYNQKFKGKATLTVDKSSSTAYMQLSSLTSEDSAVYFCGRSSSGCIAYWGQGTLVTVSA
VL: DIVLTQSPASLAVSLGQRATISCRVSGSVDYDGDSYMNWYQQKPGQPPKLLIYAASNLESGIPARFSGSGSETDFTLNIHPVEEEDAATYYCLQSNEAPWTFGGGTKVEIK
Kd: 4.6 nM | koff: 0.00275 s⁻¹ | kon: 598000 M⁻¹ s⁻¹

B3: BL006-4-61G5-61K1 (antibody, V domains shown)
VH: EVKLEESGGGLVQPGGSMKLSCVASGFTFSNYWMNWVRQSPEKGLEWVAQIRFKSDNYATHYAESVKGRFTISRDDSKSSVYLQMHNLRAEDTGIYYCTEFAYWGQGTLVTVSA
VL: QILLTQSPAIMSASPGEKVTMTCSASSRVNSRFLNWYQQKSGVSPKLWIYGTSNLASGVPARFSGSGSGTSYSLTISSVEAEDVATYYCQQYQSDPPITFGAGTRLELI
Kd: 0.364 nM | koff: 0.000153 s⁻¹ | kon: 420000 M⁻¹ s⁻¹

B4: BL006-9-1G1-1K1 (antibody, V domains shown)
VH: EVKLVESGGGLVKPGGSLKLSCAASGFTFSSYAMSWVRQTPERGLEWVAAIQSNGGSTFYPDTVKDRFTISRDNAKNTLYLQMSSLRSEDTALYYCVRGPFDYWGQGTTLTVSS
VL: QIVLTQSPAIMSASPGQKVTIPCSASSSVNYIHWFQQKLGSSPKLWIYDTSKLTPGVPARFSGSGSGTSYSLTISSMEAEDAASYFCHQWRSYPPTFGGGTKLEIK
Kd: 0.198 nM | koff: 0.00016 s⁻¹ | kon: 810000 M⁻¹ s⁻¹

B5: BL006-11-5G1-5K3 (antibody, V domains shown)
VH: EVQLVESGGGLVKPGGSLKLSCAASGFTFSSYAMSWVRQTPEKRLEWVAAINTDGASTYFPATVKDRFTISRDNAKNTLYLQMSSLRSEDTALYYCARPLEPGSWFAYWGQGTLVTVSA
VL: DVLMTQTPLSLPVSLGDQASISCRSSQSIVHSNGNTYLEWYLQKPGQSPKVLIYKVSNRFSGVPDRISGSGSGTDFTLKISRVEAGDLGVYYCFQGSHVPYTFGGGTKLEIK
Kd: 3.47 nM | koff: 0.000579 s⁻¹ | kon: 167000 M⁻¹ s⁻¹

B6: BL006-8-3G9-3K4 (antibody, V domains shown)
VH: QVQLQQSGAELVRPGASVKLSCKASGYRFTDYEMEWVKQTPVHGLEWIGAIDPETGGTAYNQKFKGKATVTADKSSRTAYMELRSLTSEDSAVYYCTREGDGSYGAYWGQGTLVTVSA
VL: B5 VL with L3M, H31Y, V51L, I53M, I67F, G86E, V99A, Y101W
Kd: 0.351 nM | koff: 0.000192 s⁻¹ | kon: 548000 M⁻¹ s⁻¹

B7: BL006-4-52G6-52K7 (antibody, V domains shown)
VH: QVQLQQPGAELVKPGASVKLSCKASGYSFTSYWMHWVKQRPGQGLEWIGQIDPSDSYTNYNQKFKGKATLTVDKSSSTAYMQLSSLTSEDSAVYYCASGNYGPYLGNYFDYWGQGTTLTVPS
VL: DIVMSQSPSSLVVSVGEKVTMSCKSSQSLLHSTNQKNYLAWYQQKPGQSPKLLIYWASTRESGVPDRFTGSGSGTDFTLTISSVKAEDLVVYYCQQYYNYPYTFGGGTKLEIK
Kd: 2.83 nM | koff: 0.000363 s⁻¹ | kon: 128000 M⁻¹ s⁻¹

B9: BL006-4-31G1-31K3 (antibody, V domains shown)
VH: QVQLQQSGPELVKPGASVKISCKTSGFTFTDYYINWVKQRPGQGLEWIGWIFPGSGSSFYSEIFKGQATLTVDKSSSTAYMLLSSLTSEDSAVYFCARRNYYGYGAYAMDYWGQGTSVTVSS
VL: DIQMNQSPSSLSASLGDTITITCRASQSINFWLSWYQQKPGNIPKLLIYKASNLHTGVPSRFSGSGSGTDFTLTISSLQPEDIATYYCLQGQSYPLTFGGGTKLEIK
Kd: 13.2 nM | koff: 0.0007 s⁻¹ | kon: 53100 M⁻¹ s⁻¹

B10: BL006-4-20G5-20K5 (antibody, V domains shown)
VH: EVQLAESGGDLVTPGGSLKLSCAASGFTFSSYGMSWVRQTPDKRLEWVATITHGGSYIYYPDSVKGRFTLSRDNAKNTLYLQMSSLKSEDTAMYYCIRHADYARFAYWGQGTLVTVSA
VL: DIQMTQTTSSLSASLGDRVTISCRPSQDISNYLNWYQQKPDGTVKLLIYYTSRLHSGVPSRFSGSGSGTDYSLTISNLEQEDIATYFCQQGNTLPWTFGGGTKLEIK
Kd: 0.825 nM | koff: 0.00057 s⁻¹ | kon: 691000 M⁻¹ s⁻¹

The next lines start with the values.

Kd: 0.45 nM | koff: 0.000296 s⁻¹ | kon: 656000 M⁻¹ s⁻¹
B2: BL006-19-183G3-183K4 (antibody, V domains shown)
VH: QVTLNESGPGILQPSQTLSLTCSFSGFSLTTYGMGVGWIRQPSGKSLEWLANIWWTEDKYYNSALKSRLTISTDTSHNQVFLKISSVDTEDTATYYCAQMGPEVYSAMDYWGQGTSVTVSS
VL: DIVMTPSQKFMSTTVGDRVSITCKASQNVGTAVAWYQQKPGHSPKLLIYSASNRNTGVPDRFTGSGSGTDFTLTISNMQSEDLADYFCHQYSRYPWTFGGGTKLEIK

Kd: 2.97 nM | koff: 0.000444 s⁻¹ | kon: 150000 M⁻¹ s⁻¹
B8: BL006-19-190G4-190K6 (antibody, V domains shown)
VH: EVQLVESGGGLVQPGGSLKLSCAASGFTFSNYGMSWVRQTPDKRLELVATINSNGGSTYYPDSVKGRFTISRDNAKNTLYLQMSSLKSEDTAMYYCTKRGAWYFDVWGTGTTVTVSS
VL: DIQMTQSSSSFSVSLGDRVTITCKASEDIYNRLAWYQQKPGNAPRLLISSATSLETGVSSRFSGSGSGKDYTLSITSLQTEDVATYYCQQYWTTPTWTFGGGTKLEIK

Kd: 0.707 nM | koff: 9.88e-05 s⁻¹ | kon: 140000 M⁻¹ s⁻¹
B11: BL006-19-134G5-134K4 (antibody, V domains shown)
VH: QVQLQQPGAELVKPGASVKLSCKASDYTFTTYWMHWVKQRPGQGLEWIGMIHPNSDTTLYNEKFRSQATLTVDKSSSTAYIQLSRLTSEDSAVYYCVVTGTNFDYWGQGTTLAVSS
VL: QVVLTQSPAIMSASPGEKVTMTCSATSSVSYMYWYQQKPGSSPKPWIYRTSNLASGVPVRFSGSGSGTSYSLTISSMEAEDAATYYCQQWSSNPLTFGGGTKLELK

Kd: 3.5 nM | koff: 0.000585 s⁻¹ | kon: 167000 M⁻¹ s⁻¹
B12: BL006-19-363G1-363K1 (antibody, V domains shown)
VH: B11 VH with D26G, M34I, H52L, D56G, L59I, T78A, I81M, V97A, A113T
VL: B11 VL with V2I, T26S, S66F, S76N, G99T

Kd: 3.45 nM | koff: 0.000501 s⁻¹ | kon: 145000 M⁻¹ s⁻¹
B13: BL006-19-55G10-55K7 (antibody, V domains shown)
VH: QVQLQQSGAEVVRPGTSVKMSCKAAGYTFTDNWIDWVKQRPGHGLDWIGNIFPGGNYTNYNEKFKGKATLTADTSSSTAYMQLINLTSEDSAIYYCVRAVADSQFAYWGQGTLVTVSA
VL: B11 VL with V2I, A13V, T26S, S28R, S30T, G99A

Kd: 0.182 nM | koff: 0.000163 s⁻¹ | kon: 896000 M⁻¹ s⁻¹
B14: BL006-19-29G5-29K1 (antibody, V domains shown)
VH: QVTLKESGPGILQSSQTLSLTCSFSGFSLSTFGMGVSWIRKPSGKGLEWLAHIFWDDDKRYNPSLKSRLTISKDTSSNQVFLMINSMDIADTATYYCTRGSNWFAYWGQGTLVTVSA
VL: DIVLTQSPASLAVSLGQRATISCRASESVDSYGNSFMHWYQQKPGQPPKLLIYRASNLESGIPARFSGSGSRTDFTLTINPVEADDVATYYCQQSNEDPLTFGAGTKLELK

Kd: 6.75 nM | koff: 0.000988 s⁻¹ | kon: 146000 M⁻¹ s⁻¹
B15: BL006-19-21G1-21K1 (antibody, V domains shown)
VH: QVQLQQPGAELVKPGASVKMSCKASGYTFISYWITWVKQRPGQGLEWIGDIYPGSGHTNYNEKFKSKATLTVDTSSSTAYMQLSSLTSEDSAVYYCARPTVEAMDYWGQGTSVTVSS
VL: QIVLTQSPAIMSASPGEKVTMTCSASSSVNYMHWYQQRSGTSPKRWIYDTSKLASGVPARFSGSGSGTSYSLTISSMEAEDAATYYCQQWSNNPLTFGAGTKLELK

Kd: 42.3 nM | koff: 0.00193 s⁻¹ | kon: 45500 M⁻¹ s⁻¹
B16: BL006-19-370G9-370K16 (antibody, V domains shown)
VH: QVQLQQSGAELGRPGTSVKMSCKAAGYTFTNYWIGWVKQRPGHGLEWIGDIYPGGGYTNYNEKFKGKATLTADTSSSTAYIQLSSLTSEDSAIYYCARSGYYDGSPLAMDYWGQGTSVTVS
VL: B15 VL with A9T, N30S, R38K, N92S, L95P, A99S, L105I

Kd: 23.4 nM | koff: 0.000796 s⁻¹ | kon: 34100 M⁻¹ s⁻¹
B17: BL006-19-352G9-352K8 (antibody, V domains shown)
VH: QVQLQQPGAELVKPGASVKLSCKASGYTFTSYWMHWVKQRPGQGLEWIGMIHPNGDITDYNEKFKSKATLAVDESSSTAFMQLNSLTSEDSAFYYCARASYYGSLYWGQGTTLTVSS
VL: DIVMTQSQKFMSTSVGDRVSVTCKASQNVGIAVAWYQKKPGQSPKTLIYSASTRYTGVPDRFTGSGSGTDFTLTINDVQSEDLADYFCQQYGSSPLTFGAGTKLELK

Reference: patent US20230192845A1
